Data as given in the supplement of paper PMC10065799, “High-throughput profiling of sequence recognition by tyrosine kinases and SH2 domains using bacterial peptide display” (eLife, 2023).

Assays:
[1] = test system: AncSZ; assay: phosphorylation enrichment, bacterial display (enrichment ratio); higher = better substrate or ligand; peptides without Tyr show the background
[2] = target: EPHB1 (UniProt P54762); assay: as above
[3] = target: EPHB2 (UniProt P29323); assay: as above
[4] = target: FGFR1 (UniProt P11362); assay: as above
[5] = target: FGFR3 (UniProt P22607); assay: as above
[6] = test system: Fer (mouse); assay: as above
[7] = target: Fes (UniProt P07332); assay: as above
[8] = target: Fyn (UniProt P06241); assay: as above
[9] = target: Hck (UniProt P08631); assay: as above
[10] = target: Jak2 (UniProt O60674); assay: as above
[11] = target: MERTK (UniProt Q12866); assay: as above
[12] = test system: c-Abl (mouse); assay: as above
[13] = test system: c-Src; assay: as above
[14] = target: Grb2 SH2 (UniProt P62993); assay: SH2 binding enrichment of the phosphorylated peptide, bacterial display (enrichment ratio); higher = better substrate or ligand; peptides without Tyr show the background
[15] = target: SHP2-C SH2; assay: as above
[16] = target: c-Src SH2; assay: as above
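Wherever SH2 binding enrichment of the phosphorylated peptide, bacterial display is given: peptide library displayed on the E. coli surface as eCPX fusions, selected cells deep-sequenced, score is each peptide's frequency after selection divided by its frequency in the input.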
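Wherever phosphorylation enrichment, bacterial display is given: 11-residue human phosphosite peptides and single-mutation variants displayed on the E. coli surface, counted by deep sequencing, each peptide's frequency after selection divided by its frequency in the unselected input library; frequency after pTyr selection over input frequency; kinase dosed for 20-30% of maximal phosphorylation in three min.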

Sequence of Grb2 SH2 (P62993 whole entry, looked up): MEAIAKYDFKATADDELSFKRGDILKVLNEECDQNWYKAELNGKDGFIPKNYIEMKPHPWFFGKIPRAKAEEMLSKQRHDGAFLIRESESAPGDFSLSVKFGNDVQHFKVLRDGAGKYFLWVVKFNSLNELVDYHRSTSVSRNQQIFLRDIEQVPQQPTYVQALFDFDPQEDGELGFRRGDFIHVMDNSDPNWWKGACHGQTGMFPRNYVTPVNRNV
Sequence of Hck (P08631 whole entry, looked up): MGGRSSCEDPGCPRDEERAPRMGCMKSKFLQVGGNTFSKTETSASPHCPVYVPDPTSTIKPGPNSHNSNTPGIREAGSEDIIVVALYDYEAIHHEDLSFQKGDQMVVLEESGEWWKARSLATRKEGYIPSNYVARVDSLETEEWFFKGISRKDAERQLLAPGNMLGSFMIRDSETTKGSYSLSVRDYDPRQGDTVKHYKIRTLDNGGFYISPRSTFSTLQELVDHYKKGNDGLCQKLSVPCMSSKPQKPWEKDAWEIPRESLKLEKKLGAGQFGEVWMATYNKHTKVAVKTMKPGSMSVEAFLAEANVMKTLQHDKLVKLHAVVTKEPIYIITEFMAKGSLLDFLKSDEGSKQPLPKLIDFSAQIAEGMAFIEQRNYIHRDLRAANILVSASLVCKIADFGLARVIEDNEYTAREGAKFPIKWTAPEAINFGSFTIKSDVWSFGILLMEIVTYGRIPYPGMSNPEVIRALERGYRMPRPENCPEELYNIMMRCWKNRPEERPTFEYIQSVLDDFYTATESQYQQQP
Sequence of EPHB1 (P54762 whole entry, looked up): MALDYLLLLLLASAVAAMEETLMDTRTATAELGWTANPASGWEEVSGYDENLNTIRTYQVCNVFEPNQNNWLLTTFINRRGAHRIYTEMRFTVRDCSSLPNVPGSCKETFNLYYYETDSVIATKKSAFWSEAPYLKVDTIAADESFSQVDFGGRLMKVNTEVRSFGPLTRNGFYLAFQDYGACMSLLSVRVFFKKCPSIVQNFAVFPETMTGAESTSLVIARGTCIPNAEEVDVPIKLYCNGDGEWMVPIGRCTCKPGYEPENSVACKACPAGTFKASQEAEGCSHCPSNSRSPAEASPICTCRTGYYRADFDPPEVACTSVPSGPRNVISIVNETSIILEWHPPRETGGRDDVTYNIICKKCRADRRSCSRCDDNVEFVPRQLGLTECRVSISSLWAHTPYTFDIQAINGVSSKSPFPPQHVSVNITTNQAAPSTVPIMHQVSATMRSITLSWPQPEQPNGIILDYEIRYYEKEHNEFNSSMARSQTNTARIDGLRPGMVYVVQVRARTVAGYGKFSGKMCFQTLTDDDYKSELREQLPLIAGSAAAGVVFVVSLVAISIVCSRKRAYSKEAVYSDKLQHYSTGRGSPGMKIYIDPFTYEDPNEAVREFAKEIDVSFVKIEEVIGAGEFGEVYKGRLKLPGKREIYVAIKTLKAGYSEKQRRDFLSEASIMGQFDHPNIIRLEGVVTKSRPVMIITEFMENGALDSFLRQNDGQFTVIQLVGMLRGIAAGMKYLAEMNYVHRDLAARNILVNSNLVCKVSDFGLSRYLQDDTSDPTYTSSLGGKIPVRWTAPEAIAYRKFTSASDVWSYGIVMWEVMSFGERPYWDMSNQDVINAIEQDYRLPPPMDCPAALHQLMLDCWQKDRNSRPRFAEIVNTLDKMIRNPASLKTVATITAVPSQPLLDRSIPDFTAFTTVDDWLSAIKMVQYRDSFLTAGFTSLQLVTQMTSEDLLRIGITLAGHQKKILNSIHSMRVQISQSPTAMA
Sequence of EPHB2 (P29323 whole entry, looked up): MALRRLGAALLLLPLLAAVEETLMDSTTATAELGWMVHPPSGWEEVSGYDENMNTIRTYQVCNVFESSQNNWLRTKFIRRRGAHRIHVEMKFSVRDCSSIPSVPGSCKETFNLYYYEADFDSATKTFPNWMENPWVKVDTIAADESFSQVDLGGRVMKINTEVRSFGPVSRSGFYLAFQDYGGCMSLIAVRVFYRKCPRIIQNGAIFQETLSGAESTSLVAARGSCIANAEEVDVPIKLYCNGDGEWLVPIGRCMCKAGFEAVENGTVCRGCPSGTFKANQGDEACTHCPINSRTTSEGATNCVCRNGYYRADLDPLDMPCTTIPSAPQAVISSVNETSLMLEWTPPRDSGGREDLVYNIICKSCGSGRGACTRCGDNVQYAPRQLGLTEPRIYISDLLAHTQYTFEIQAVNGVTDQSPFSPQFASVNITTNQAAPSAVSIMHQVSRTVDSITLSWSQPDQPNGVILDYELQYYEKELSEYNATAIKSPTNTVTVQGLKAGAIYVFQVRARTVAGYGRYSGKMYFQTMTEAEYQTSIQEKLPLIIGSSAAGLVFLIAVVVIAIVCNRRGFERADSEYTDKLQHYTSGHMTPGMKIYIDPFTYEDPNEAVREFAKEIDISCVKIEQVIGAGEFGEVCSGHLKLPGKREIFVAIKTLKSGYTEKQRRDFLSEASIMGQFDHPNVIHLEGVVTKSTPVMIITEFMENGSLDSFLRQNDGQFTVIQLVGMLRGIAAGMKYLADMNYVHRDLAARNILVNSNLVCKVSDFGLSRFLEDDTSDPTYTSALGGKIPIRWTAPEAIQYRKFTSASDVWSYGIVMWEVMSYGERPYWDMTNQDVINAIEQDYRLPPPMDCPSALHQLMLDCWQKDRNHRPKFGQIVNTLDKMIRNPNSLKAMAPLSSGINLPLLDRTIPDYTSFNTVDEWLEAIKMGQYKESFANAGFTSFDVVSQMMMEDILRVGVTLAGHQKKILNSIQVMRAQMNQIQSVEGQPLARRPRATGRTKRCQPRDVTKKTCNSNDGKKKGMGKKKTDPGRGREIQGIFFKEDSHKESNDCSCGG
Sequence of MERTK (Q12866 whole entry, looked up): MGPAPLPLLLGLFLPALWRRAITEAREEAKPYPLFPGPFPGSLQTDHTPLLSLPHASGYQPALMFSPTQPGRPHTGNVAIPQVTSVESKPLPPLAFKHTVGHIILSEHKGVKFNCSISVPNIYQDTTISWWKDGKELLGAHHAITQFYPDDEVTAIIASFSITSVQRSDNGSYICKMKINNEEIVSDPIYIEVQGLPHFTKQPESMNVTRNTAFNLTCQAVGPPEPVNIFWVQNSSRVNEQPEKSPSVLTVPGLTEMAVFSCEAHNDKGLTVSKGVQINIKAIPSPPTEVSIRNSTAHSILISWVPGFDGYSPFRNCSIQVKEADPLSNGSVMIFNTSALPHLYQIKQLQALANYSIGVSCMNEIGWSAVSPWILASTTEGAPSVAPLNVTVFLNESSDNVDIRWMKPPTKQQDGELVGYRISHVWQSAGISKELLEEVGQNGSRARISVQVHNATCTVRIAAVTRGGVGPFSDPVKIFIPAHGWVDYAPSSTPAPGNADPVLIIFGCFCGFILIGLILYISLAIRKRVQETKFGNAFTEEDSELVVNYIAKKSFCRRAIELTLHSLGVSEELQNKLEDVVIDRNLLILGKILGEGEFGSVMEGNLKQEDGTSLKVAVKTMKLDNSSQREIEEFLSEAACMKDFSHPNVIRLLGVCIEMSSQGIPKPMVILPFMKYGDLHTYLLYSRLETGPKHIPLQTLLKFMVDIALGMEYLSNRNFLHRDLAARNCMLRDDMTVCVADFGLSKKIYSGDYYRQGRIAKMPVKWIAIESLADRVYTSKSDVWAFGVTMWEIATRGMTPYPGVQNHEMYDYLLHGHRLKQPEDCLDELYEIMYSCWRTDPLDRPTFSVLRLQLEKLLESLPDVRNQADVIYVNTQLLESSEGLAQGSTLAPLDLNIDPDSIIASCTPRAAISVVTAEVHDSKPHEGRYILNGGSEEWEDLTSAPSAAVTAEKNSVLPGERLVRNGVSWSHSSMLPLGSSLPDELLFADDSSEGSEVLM
Sequence of FGFR1 (P11362 whole entry, looked up): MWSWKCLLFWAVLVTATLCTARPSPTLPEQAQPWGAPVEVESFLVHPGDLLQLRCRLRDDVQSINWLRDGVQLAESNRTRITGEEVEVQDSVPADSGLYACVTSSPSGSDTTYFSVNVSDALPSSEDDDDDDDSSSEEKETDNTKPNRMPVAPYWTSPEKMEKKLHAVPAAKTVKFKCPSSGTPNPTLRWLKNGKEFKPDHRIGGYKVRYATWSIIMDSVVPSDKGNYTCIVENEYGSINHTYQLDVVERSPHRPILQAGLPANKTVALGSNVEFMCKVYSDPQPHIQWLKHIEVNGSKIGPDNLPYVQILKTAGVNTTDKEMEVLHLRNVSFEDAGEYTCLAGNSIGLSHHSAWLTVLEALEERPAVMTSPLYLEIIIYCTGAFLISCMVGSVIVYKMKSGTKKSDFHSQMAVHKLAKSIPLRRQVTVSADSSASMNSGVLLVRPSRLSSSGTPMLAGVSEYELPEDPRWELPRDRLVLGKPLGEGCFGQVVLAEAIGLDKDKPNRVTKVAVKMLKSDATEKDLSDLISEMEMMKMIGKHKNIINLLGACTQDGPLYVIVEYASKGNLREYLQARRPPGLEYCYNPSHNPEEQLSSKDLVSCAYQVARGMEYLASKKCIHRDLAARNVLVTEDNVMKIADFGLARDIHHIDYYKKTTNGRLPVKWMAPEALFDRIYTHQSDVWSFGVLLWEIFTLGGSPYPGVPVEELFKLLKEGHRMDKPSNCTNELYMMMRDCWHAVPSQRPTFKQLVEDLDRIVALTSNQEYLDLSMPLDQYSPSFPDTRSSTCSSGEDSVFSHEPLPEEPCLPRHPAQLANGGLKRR

Sequence	phosphorylation enrichment [1]	phosphorylation enrichment [2]	phosphorylation enrichment [3]	phosphorylation enrichment [4]	phosphorylation enrichment [5]	phosphorylation enrichment [6]	phosphorylation enrichment [7]	phosphorylation enrichment [8]	phosphorylation enrichment [9]	phosphorylation enrichment [10]	phosphorylation enrichment [11]	phosphorylation enrichment [12]	phosphorylation enrichment [13]	SH2 binding enrichment [14]	SH2 binding enrichment [15]	SH2 binding enrichment [16]
FSAPNCCFRCG [PPP2CA_Y265_Y265C_YF]	0.856	0.559	0.461	0.458	0.663	0.48	0.974	0.458	0.479	0.833	0.486	0.658	0.448	0.931	0.751	0.585
FSAPNYCFRCG [PPP2CA_Y265_YF]	0.661	0.397	0.448	0.474	0.486	0.415	0.674	0.349	0.374	0.511	0.393	0.416	0.343	1.24	0.702	0.763
FSMGCYEISLG [HMGCL_Y198_YF]	1.93	1.03	1.01	0.652	1.05	1.68	1.47	0.993	0.836	1.6	0.866	0.965	1.64	0.641	0.785	0.505
FSNVLYRPRGP [TMIGD2_Y197_A202P_YF]	0.549	0.429	0.399	0.367	0.444	0.397	0.674	0.438	0.479	0.959	0.434	0.568	0.463	0.693	0.794	0.506
FTRNFYVQAVL [CYBA_Y88_R90Q_YF]	0.993	0.81	0.57	0.563	0.795	0.654	1.31	0.435	0.483	1.15	0.494	0.742	0.474	0.837	0.78	0.421
FVHDNYVIQRT [CPS1_Y1450_R1453Q]	0.788	2.19	1.07	0.481	0.567	0.694	0.672	0.425	0.436	0.7	0.469	0.52	0.481	0.971	0.596	0.624
FVPSNYVAEDR [FRK_Y104_I100V_YF]	0.782	0.527	0.625	0.447	0.662	0.409	0.827	0.439	0.431	0.642	0.38	0.625	0.35	0.788	0.76	0.588
GCRSKHVGLWG [KCNQ1_Y184_Y184H]	0.518	0.316	0.314	0.36	0.388	0.325	0.481	0.385	0.328	0.409	0.397	0.516	0.359	1.17	0.906	0.86
GEDEPYAEPFA [APBA1_Y183_S184A_YF]	1.43	0.584	0.571	0.607	0.872	0.569	1.21	0.462	0.593	1.47	0.547	0.814	0.649	1.08	0.652	0.636
GESKDYALHVG [SVIL_Y185]	0.606	1.92	0.721	0.469	0.532	0.436	0.798	0.463	0.461	0.461	0.468	0.502	0.416	0.815	0.612	0.452
GFILMYDITNE [RAB3C_Y110]	1.33	1.06	1.6	0.49	0.975	0.692	1.66	0.526	0.633	1.38	0.678	0.8	0.559	1.05	0.962	0.674
GGKFSYLKVGH [GRM3_Y480_YF]	0.634	0.409	0.368	0.512	0.519	0.344	0.619	0.361	0.371	0.642	0.463	0.494	0.411	0.901	0.525	0.401
GGRKGYGGFSR [RECQL5_Y478_D480G]	0.551	0.393	0.396	0.391	0.452	0.36	0.491	0.513	0.42	0.51	0.512	0.506	0.487	0.736	0.571	0.453
GHEFIYVDPMQ [PDGFRA_Y574_YF]	1.85	5.23	6.63	10.8	7.52	1.91	0.986	2.2	2.96	0.818	2.36	6.67	2.6	0.821	0.661	0.563
GHLFAYNWISI [BEST1_Y227_D228N_YF]	0.962	0.51	0.469	1.34	1.21	4.77	1.06	0.488	0.444	0.978	0.548	0.58	0.392	0.993	1.13	0.916
GHLYACDWISI [BEST1_Y227_Y227C]	1.21	1.3	0.929	0.902	1.06	0.677	1.43	1.06	0.846	1.18	4.89	1.05	1.34	0.799	0.676	0.771
GHRPVYSEDEQ [CHST6_Y362_Y358H]	1.05	0.429	0.523	0.495	0.707	0.501	1.13	0.474	0.564	0.894	0.437	0.757	0.48	1.1	0.736	0.641

Sequence	phosphorylation enrichment [1]	phosphorylation enrichment [2]	phosphorylation enrichment [3]	phosphorylation enrichment [4]	phosphorylation enrichment [5]	phosphorylation enrichment [6]	phosphorylation enrichment [7]	phosphorylation enrichment [8]	phosphorylation enrichment [9]	phosphorylation enrichment [10]	phosphorylation enrichment [11]	phosphorylation enrichment [12]	phosphorylation enrichment [13]	SH2 binding enrichment [14]	SH2 binding enrichment [15]	SH2 binding enrichment [16]
GIFSGYDDAWD [POLR1C_Y36_N32I_YF]	1.1	0.51	0.651	0.531	0.7	0.477	1.14	0.551	0.547	1.07	0.481	0.746	0.514	0.968	0.695	4.13
GINDDYGQLKN [NBN_Y679]	0.841	0.364	0.514	0.499	0.61	0.474	1.1	0.528	0.874	0.829	0.296	0.499	0.613	0.92	1.42	0.494
GIPIQYPIISE [NOG_Y222_W217G]	0.868	0.55	0.587	0.627	0.685	0.467	1.11	0.541	0.446	1.02	0.447	0.888	0.409	0.847	0.457	0.498
GISDEYHMIRH [GCDH_Y398_V400M]	1.07	0.446	0.522	7.6	4.43	0.402	0.714	0.58	0.891	0.575	0.349	0.491	0.735	0.931	0.587	0.781
GISDEYHVIWH [GCDH_Y398_R402W]	2.07	1.46	1.1	7.06	4.61	0.649	1.17	0.837	1	1.34	0.391	0.818	1.09	0.789	0.521	0.568
GKFHMYVAVWT [F13A1_Y161_R159H]	1.18	0.491	0.479	0.516	0.669	0.445	1.1	0.407	0.498	1.06	0.351	1.45	0.368	1.03	0.825	0.535
GKFRMYVAVWT [F13A1_Y161]	1.14	0.508	0.604	0.479	0.665	0.501	1.1	0.377	0.365	1.13	0.357	0.762	0.342	0.997	0.619	0.5
GLGVTYEQALA [MAP2_Y996]	0.712	0.48	0.471	0.437	0.477	0.423	0.686	0.464	0.439	0.724	0.372	1.18	0.503	0.784	0.495	0.572
GLSDLYVKIHL [SYT2_Y309_P308L]	1.26	0.826	0.615	0.452	0.804	0.705	1.45	0.623	0.613	1.38	0.428	0.94	0.495	1.04	0.599	0.567
GNEEAYGSSHI [FAM171B_Y522_R524S]	0.763	0.465	0.525	0.48	0.518	0.4	0.817	0.521	0.489	0.718	0.526	0.866	0.549	0.663	0.751	0.435
GNLQENLTRHV [TGFBR2_Y336_Y336N]	0.461	0.478	0.422	0.358	0.418	0.366	0.558	0.427	0.374	0.447	0.368	0.432	0.337	0.698	0.601	0.474
GQKTLYSFFSP [UNG_Y8]	0.984	2.58	2.12	1.18	1.42	8.62	1.2	4.16	4.06	0.908	10.3	2.05	4.32	1.04	1.6	0.589
GREEFYSTHPH [LRRK2_Y1402]	0.576	0.385	0.482	0.505	0.465	0.528	0.575	0.42	0.679	0.483	1.52	0.418	0.421	0.845	0.607	0.376
GRQGIYKENER [GPR143_Y231_T232K]	0.627	0.322	0.375	0.441	0.428	0.407	0.722	0.371	0.484	0.515	0.738	0.555	0.436	0.735	0.427	0.443
GRRGQYVMLSE [TTC7A_Y396]	0.692	0.431	0.494	0.506	0.532	0.45	0.586	0.546	0.512	0.573	0.673	0.565	0.549	0.84	0.673	2.01
GRSTFYWPRPR [GAGE12J_Y10_YF]	0.831	0.446	0.472	0.48	0.47	0.463	0.602	0.474	0.713	0.644	0.538	0.573	0.501	0.844	0.64	0.563
